Measured values reported in patent US20220298260A1 (MYTHIC THERAPEUTICS, published 2022).

Target: T1, FOLR1 (R&D Systems, Cat #5646-FR) (human, UniProt P15328 25-233)
T1 construct: Bought soluble protein; also called Folate Receptor 1
Experiment: BLI, IgG on anti-human Fc sensor

T1 sequence (P15328 25-233 limits assumed): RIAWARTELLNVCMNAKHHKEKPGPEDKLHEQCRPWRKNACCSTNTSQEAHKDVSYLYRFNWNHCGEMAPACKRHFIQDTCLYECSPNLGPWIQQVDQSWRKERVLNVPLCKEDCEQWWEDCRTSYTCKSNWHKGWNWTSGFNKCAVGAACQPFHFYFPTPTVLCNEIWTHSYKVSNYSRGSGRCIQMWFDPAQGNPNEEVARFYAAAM

Row | binding result | Binder
1 | no binding (tested: 50 nM) | MYT0613 (antibody, V domains shown, IgG) VH: QVQLVQSGAEVVKPGASVKISCKASGYTFTGYFMNWVKQSPGQSLEWIGRIHHYDGDTFYNQKFQGKATLTVDKSSNTAHMELLSLTSEDFAVYYCTRYDGSRAMDYWGQGTTVTVSS VL: DIVLTQSPLSLAVSLGQPAIISCKASQSVSFAGTSLMHWYHQKPGQQPRLLIYRASNLEAGVPDRFSGSGSKTDFTLTISPVEAEDAATYYCQQSREYPYTFGGGTKLEIK
2 | no binding (tested: 50 nM) | MYT0631 (antibody, V domains shown, IgG) VH: QVQLVQSGAEVVKPGASVKISCKASGYTFTGYFMNWVKQSPGQSLEWIGRIHPYDGDTFYNQKFQGKATLTVDKSSNTAHMELLSLTSEDFAVYYCTRYDHSRAMDYWGQGTTVTVSS VL: DIVLTQSPLSLAVSLGQPAIISCKASQSVSFAGTSLMHWYHQKPGQQPRLLIYRASNLEAGVPDRFSGSGSKTDFTLTISPVEAEDAATYYCQQSREYPYTFGGGTKLEIK
3 | no binding (tested: 50 nM) | MYT0634 (antibody, V domains shown, IgG) VH: QVQLVQSGAEVVKPGASVKISCKASGYTFTGYFMNWVKQSPGQSLEWIGRIHPYDGDTFYNQKFQGKATLTVDKSSNTAHMELLSLTSEDFAVYYCTRYDGSRHMDYWGQGTTVTVSS VL: DIVLTQSPLSLAVSLGQPAIISCKASQSVSFAGTSLMHWYHQKPGQQPRLLIYRASNLEAGVPDRFSGSGSKTDFTLTISPVEAEDAATYYCQQSREYPYTFGGGTKLEIK
4 | no binding (tested: 50 nM) | MYT2244 (antibody, V domains shown, IgG) VH: EVQLVESGGGLVQPGGSLRLSCAASGFNIRTQSIHWVRQAPGKGLEWIGDIFPIDGITHYADSVKGRFTISADTSKNTAYLQMNSLRAEDTAVYYCARGSWSWPSGMDYYLDYWGQGTLVTVSS VL: not shown
5 | no binding (tested: 50 nM) | MYT2261 (antibody, V domains shown, IgG) VH: EVQLVESGGGLVQPGGSLRLSCAASGFNIRTQSIHWVRQAPGKGLEWIGDIFPIDGITDYADSVKGRFTISADTSKNTAYLQMNSLRAEDTAVYYCARGSWSWPSHMDYYLDYWGQGTLVTVSS VL: not shown
6 | no binding (tested: 50 nM) | MYT2252 (antibody, V domains shown, IgG) VH: EVQLVESGGGLVQPGGSLRLSCAASGFNIRTQSIHWVRQAPGKGLEWIGDIFPIDGITDYADSVKGRFTISADTSKNTAYLQMNSLRAEDTAVYYCHRGSWSWPSGMDYYLDYWGQGTLVTVSS VL: not shown
7 | no binding (tested: 50 nM) | MYT2259 (antibody, V domains shown, IgG) VH: EVQLVESGGGLVQPGGSLRLSCAASGFNIRTQSIHWVRQAPGKGLEWIGDIFPIDGITDYADSVKGRFTISADTSKNTAYLQMNSLRAEDTAVYYCARGSWSWHSGMDYYLDYWGQGTLVTVSS VL: not shown
8 | no binding (tested: 50 nM) | MYT2254 (antibody, V domains shown, IgG) VH: EVQLVESGGGLVQPGGSLRLSCAASGFNIRTQSIHWVRQAPGKGLEWIGDIFPIDGITDYADSVKGRFTISADTSKNTAYLQMNSLRAEDTAVYYCARHSWSWPSGMDYYLDYWGQGTLVTVSS VL: not shown

Target: T1, FOLR1 (R&D Systems, Cat #5646-FR)
Experiment: BLI, IgG on anti-human Fc sensor, 50 nM FOLR1

Row | binding result | Binder
9 | binds | MYT4538 (antibody, V domains shown, IgG) VH: EVQLVESGGGVVQPGRSLRLSCSASGFTFSGYGLSWVRQAPGKGLEWVAMISSGGSYTYYADSVKGRFAISRDNAKNTLFLQMDSLRPEDTGVYFCARHGDDPAWFAYWGQGTPVTVSS VL: DIQLTQSPSSLSASVGDRVTITCSVSSSISSNNLHWYQQKPGKAPKPWIYGTSNLASGVPSRFSGSGSGTDYTFTISSLQPEDIATYYCQQHSSYPYMYTFGQGTKVEIK
10 | binds | MYT4539 (antibody, V domains shown, IgG) VH: EVQLVESGGGVVQPGRSLRLSCSASGFTFSGYGLSWVRQAPGKGLEWVAMISSGGSYTYYADSVKGRFAISRDNAKNTLFLQMDSLRPEDTGVYFCARHGDDPAWFAYWGQGTPVTVSS VL: DIQLTQSPSSLSASVGDRVTITCSVSSSISSNNLHWYQQKPGKAPKPWIYGTSNLASGVPSRFSGSGSGTDYTFTISSLQPEDIATYYCQQWHSYPYMYTFGQGTKVEIK
11 | binds | MYT4545 (antibody, V domains shown, IgG) VH: EVQLVESGGGVVQPGRSLRLSCSASGFTFSGYGLSWVRQAPGKGLEWVAMISSGGSYTYYADSVKGRFAISRDNAKNTLFLQMDSLRPEDTGVYFCARHGDDPAWFAYWGQGTPVTVSS VL: DIQLTQSPSSLSASVGDRVTITCSVSSSISSNNLHWYQQKPGKAPKPWIYGTSNLASGVPSRFSGSGSGTDYTFTISSLQPEDIATYYCQQWSSYPYMHTFGQGTKVEIK
12 | binds | MYT4541 (antibody, V domains shown, IgG) VH: EVQLVESGGGVVQPGRSLRLSCSASGFTFSGYGLSWVRQAPGKGLEWVAMISSGGSYTYYADSVKGRFAISRDNAKNTLFLQMDSLRPEDTGVYFCARHGDDPAWFAYWGQGTPVTVSS VL: DIQLTQSPSSLSASVGDRVTITCSVSSSISSNNLHWYQQKPGKAPKPWIYGTSNLASGVPSRFSGSGSGTDYTFTISSLQPEDIATYYCQQWSSHPYMYTFGQGTKVEIK
13 | binds | MYT4542 (antibody, V domains shown, IgG) VH: EVQLVESGGGVVQPGRSLRLSCSASGFTFSGYGLSWVRQAPGKGLEWVAMISSGGSYTYYADSVKGRFAISRDNAKNTLFLQMDSLRPEDTGVYFCARHGDDPAWFAYWGQGTPVTVSS VL: DIQLTQSPSSLSASVGDRVTITCSVSSSISSNNLHWYQQKPGKAPKPWIYGTSNLASGVPSRFSGSGSGTDYTFTISSLQPEDIATYYCQQWSSYHYMYTFGQGTKVEIK
14 | binds | MYT4543 (antibody, V domains shown, IgG) VH: EVQLVESGGGVVQPGRSLRLSCSASGFTFSGYGLSWVRQAPGKGLEWVAMISSGGSYTYYADSVKGRFAISRDNAKNTLFLQMDSLRPEDTGVYFCARHGDDPAWFAYWGQGTPVTVSS VL: DIQLTQSPSSLSASVGDRVTITCSVSSSISSNNLHWYQQKPGKAPKPWIYGTSNLASGVPSRFSGSGSGTDYTFTISSLQPEDIATYYCQQWSSYPHMYTFGQGTKVEIK
15 | binds | MYT4540 (antibody, V domains shown, IgG) VH: EVQLVESGGGVVQPGRSLRLSCSASGFTFSGYGLSWVRQAPGKGLEWVAMISSGGSYTYYADSVKGRFAISRDNAKNTLFLQMDSLRPEDTGVYFCARHGDDPAWFAYWGQGTPVTVSS VL: DIQLTQSPSSLSASVGDRVTITCSVSSSISSNNLHWYQQKPGKAPKPWIYGTSNLASGVPSRFSGSGSGTDYTFTISSLQPEDIATYYCQQWSHYPYMYTFGQGTKVEIK
16 | binds | MYT4546 (antibody, V domains shown, IgG) VH: EVQLVESGGGVVQPGRSLRLSCSASGFTFSGYGLSWVRQAPGKGLEWVAMISSGGSYTYYADSVKGRFAISRDNAKNTLFLQMDSLRPEDTGVYFCARHGDDPAWFAYWGQGTPVTVSS VL: DIQLTQSPSSLSASVGDRVTITCSVSSSISSNNLHWYQQKPGKAPKPWIYGTSNLASGVPSRFSGSGSGTDYTFTISSLQPEDIATYYCQQWSSYPYMYHFGQGTKVEIK
17 | binds | MYT4544 (antibody, V domains shown, IgG) VH: EVQLVESGGGVVQPGRSLRLSCSASGFTFSGYGLSWVRQAPGKGLEWVAMISSGGSYTYYADSVKGRFAISRDNAKNTLFLQMDSLRPEDTGVYFCARHGDDPAWFAYWGQGTPVTVSS VL: DIQLTQSPSSLSASVGDRVTITCSVSSSISSNNLHWYQQKPGKAPKPWIYGTSNLASGVPSRFSGSGSGTDYTFTISSLQPEDIATYYCQQWSSYPYHYTFGQGTKVEIK
